Results: US20230220048A1
pKd: −log10 of the molar value.

Target: recombinant human FcRn (human) (UniProt P55899)
Test: SPR, pH 5.8 (comparison value, data not shown)

recombinant human FcRn (human), sequence (P55899 24-297): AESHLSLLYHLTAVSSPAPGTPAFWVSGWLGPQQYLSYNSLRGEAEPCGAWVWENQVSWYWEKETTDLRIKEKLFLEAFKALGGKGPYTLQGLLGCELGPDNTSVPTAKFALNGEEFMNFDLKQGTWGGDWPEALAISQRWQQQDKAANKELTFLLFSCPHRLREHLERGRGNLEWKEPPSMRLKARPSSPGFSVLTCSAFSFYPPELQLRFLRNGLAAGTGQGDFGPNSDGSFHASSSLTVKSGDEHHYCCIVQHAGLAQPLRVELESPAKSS

pKd: 5.70 to 6.00
Substance: wild type HSA (from UniProt P02768 25-607)
